“Also recorded” adds a separate entry of the source. Like-named read-outs stand apart in the source and are kept apart here.
Assays:
[1] = system: Micrococcus lysodeikticus ATTC No. 4698; assay: Lysozyme activity turbidity assay (optical density drop at 540 nm); details: for Lysozyme activity against Micrococcus lysodeikticus (in words): OD drop assay
[2] = system: Clostridium perfringens DSM756; assay type: cell-based; details: for Diameter of clearing zone (mm): lysozymes 100 μg/ml, Bacitracin zinc salt 50 μg/ml; for Diameter of clearing zone (mm), bracketed with *: Incomplete inhibition of growth visible after MTT colouring: lysozyme 100 μg/ml; for Antimicrobial activity against Clostridium perfringens (in words): RDA
[3] = system: Exiguobacterium undea (DSM14481); assay: Lysozyme activity turbidity assay (optical density drop at 540 nm); assay type: biochemical, Exiguobacterium undae; details: for Lysozyme activity against Exiguobacterium undea (in words): OD drop assay

Molecule | Lysozyme activity against Micrococcus lysodeikticus (in words) [1] | Diameter of clearing zone (mm) ([2]; Experiment 1, 1/2 MHB pH 6) | Lysozyme activity against Exiguobacterium undea (in words) [3] | Lysozyme Activity against Exiguobacterium undae as measured by Optical Density Drop ([3]; assay pH 6 (Table 14)) | Lysozyme Activity against Micrococcus lysodeikticus as measured by Optical Density Drop ([1]; assay pH 6 (Table 14)) | also measured
SEQ ID NO: 270: mature GH24 catalytic domain from Trichophaea saccata with QCVG-linker (SEQ ID NO: 257 lacking the LED) (protein) QCVGCKPPPINAATVALIKEFEGFVPKPAPDPIGLPTVGYGHLCKTKGCKEVPYSFPLTQETATKLLQSDIKTFTSCVSNYVKDSVKLNDNQYGALASWAFNVGCGNVQTSSLIKRLNAGENPNTVAAQELPKWKYAGGKVMPGLVRRRNAEVALFKKPSSVQAHPPKC | no lysozyme activity | 0 |  |  |  | Lysozyme Activity against Micrococcus lysodeikticus as measured by Optical Density Drop ([1]; assay pH 6): −; Diameter of clearing zone (mm), bracketed with *: Incomplete inhibition of growth visible after MTT colouring ([2]; Experiment 1, 1/10 MHB pH 7): (8)* mm; Diameter of clearing zone (mm), bracketed with *: Incomplete inhibition of growth visible after MTT colouring ([2]; Experiment 2, 1/10 MHB pH 7): (5)* mm; Antimicrobial activity against Clostridium perfringens (in words) ([2]; 50% MHB, pH 6): no activity
SEQ ID NO: 291: mature GH24 lysozyme from Trichophaea minuta (protein, listed as Trichophaea minuta, mat_peptide (1)..(245), mature GH24 lysozyme from Trichophaea minuta) YPAKVDLRCRSSPSTSASVVRTYSKGSEIQISCQTTGTSVEGSNVWDKTQHGCYVADYYVKTGHSGIFTTKCGSSSGGGSCKPPPINAATVALIKEFEGFVAKPAPDPIGLPTVGYGHLCKTKGCKEVPYSFPLTQTTATKLLQSDIKTFTSCVSNYVKDSVKLNDNQFGALSSWAFNVGCGNIQTSSLIKRLNAGENPNTVAAQELPKWKYAGGKVLPGLVRRRKAEVALFKKPSSVQAHPPKC | good activity |  | good activity | ++++ | ++++ | 
SEQ ID NO: 279: mature GH24 lysozyme from Acremonium alcalophilum, mature sequence of SEQ ID NO: 4 of WO 2013/076259; no LED (protein, listed as Acremonium alcalophilum, mat_peptide (1)..(166), no LED) QCVGPEVNSASINLIKEFEGWYPDIYVDPAGYPTVGYGHLCSDSSCSDVSYSIPLSEADGENLLRDDITNFQNCITWQTASSVVLNANQYGALVSWAFNVGCGASESSSLIARLNAGEDPNTVAEEELPRWNQGGGQVLPGLVRRRAAEVELHQIPTDVAALPACS |  | 0 |  |  |  | Diameter of clearing zone (mm) ([2]; Experiment 1, 1/10 MHB pH 7): 0 mm; Diameter of clearing zone (mm) ([2]; Experiment 2, 1/10 MHB pH 7): 0 mm; Antimicrobial activity against Clostridium perfringens (in words) ([2]; tested conditions (1/10 MHB pH 7 and 1/2 MHB pH 6)): do not have any activity; also recorded: did not inhibit growth
SEQ ID NO: 300: mature GH24 lysozyme from Metarhizium sp. XZ2431 (protein, listed as Metarhizium sp., mat_peptide (1)..(247), mature GH24 lysozyme from Metarhizium sp; XZ2431) YPVSADSLNCRAEPNTSSAIKTTYKKGEDVKISCQTEGPSINGNTIWDKTQDGCYVADYYVKTGSSGYVTGKCGGSSPPSGSGFCKTVNKAGLDLITKWEGFVSSPRGDPIGLPTVGYGHLCQKKGCAEVKYKFPLTKATALQLLNDDLPKYTGCLGKLLNSKVKLNDNQWAALTSWVFNVGCGNAQSSSLVRRLNNGENPNTVAPSELPKWKMAGGKVLEGLVKRRADEVRLFKVSSSKGAFPKCQ | good activity |  | good activity | +++ | +++ | 
SEQ ID NO: 294: mature GH24 lysozyme from Chaetomium sp. ZY287 (protein, listed as Chaetomium sp., mat_peptide (1)..(249), mature GH24 lysozyme from Chaetomium sp; ZY287) YKISGSSVNCRSGPGTNYPVKKTYANGDEVTISCQTTGTNVEGNNIWDKTQHGCYVADKYVKTGKDGFVTKKCGSSGGGGGGKTCKAPKSNAATVDLIASFEGFRANIYTDATGHPTVGYGHMCTKSRCAEVKYKIPLSKADGKKLLADDMAKFEKCIKEMLNSKAKLNLNQYGALVSWSFNVGCGAAKGSQLVSRLNKGENPNTVLSNELPKWVHGNGKVLPGLVRRRNAEIALAKKSGSGAALPVKC | good activity |  | good activity |  |  | Lysozyme Activity against Exiguobacterium undae as measured by Optical Density Drop ([3]; assay pH 7 (Table 14)): +++; Lysozyme Activity against Micrococcus lysodeikticus as measured by Optical Density Drop ([1]; assay pH 7 (Table 14)): +++
